# Publication PMC3406685 (The Journal of Biological Chemistry, 2012)
# B1: integrin α1β1 on rat pheochromocytoma PC12 cells (receptor, rat (endogenous in PC12))
# chain 1: FNVDVKNSMSFSGPVEDMFGYTVQQYENEEGKWVLIGSPLVGQPKARTGDVYKCPVGRERAMPCVKLDLPVNTSIPNVTEIKENMTFGSTLVTNPNGGFLACGPLYAYRCGHLHYTTGICSDVSPTFQVVNSFAPVQECSTQLDIVIVLDGSNSIYPWESVIAFLNDLLKRMDIGPKQTQVGIVQYGENVTHEFNLNKYSSTEEVLVAANKIGRQGGLQTMTALGIDTARKEAFTEARGARRGVKKVMVIVTDGESHDNYRLKQVIQDCEDENIQRFSIAILGHYNRGNLSTEKFVEEIKSIASEPTEKHFFNVSDELALVTIVKALGERIFALEATADQSAASFEMEMSQTGFSAHYSQDWVMLGAVGAYDWNGTVVMQKANQMVIPHNTTFQTEPAKMNEPLASYLGYTVNSATIPGDVLYIAGQPRYNHTGQVVIYKMEDGNINILQTLGGEQIGSYFGSVLTTIDIDKDSYTDLLLVGAPMYMGTEKEEQGKVYVYAVNQTRFEYQMSLEPIRQTCCSSLKDNSCTKENKNEPCGARFGTAIAAVKDLNVDGFNDVVIGAPLEDDHAGAVYIYHGSGKTIREAYAQRIPSGGDGKTLKFFGQSIHGEMDLNGDGLTDVTIGGLGGAALFWARDVAVVKVTMNFEPNKVNIQKKNCRVEGKETVCINATMCFHVKLKSKEDSIYEADLQYRVTLDSLRQISRSFFSGTQERKIQRNITVRESECIRHSFYMLDKHDFQDSVRVTLDFNLTDPENGPVLDDALPNSVHEHIPFAKDCGNKERCISDLTLNVSTTEKSLLIVKSQHDKFNVSLTVKNKGDSAYNTRTVVQHSPNLIFSGIEEIQKDSCESNQNITCRVGYPFLRAGETVTFKIIFQFNTSHLSENAIIHLSATSDSEEPLESLNDNEVNISIPVKYEVGLQFYSSASEHHISVAANETIPEFINSTEDIGNEINVFYTIRKRGHFPMPELQLSISFPNLTADGYPVLYPIGWSSSDNVNCRPRSLEDPFGINSGKKMTISKSEVLKRGTIQDCSSTCGVATITCSLLPSDLSQVNVSLLLWKPTFIRAHFSSLNLTLRGELKSENSSLTLSSSNRKRELAIQISKDGLPGRVPLWVILLSAFAGLLLLMLLILALWKIGFFKRPLKKKMEK
# chain 2: QTDKNRCLKANAKSCGECIQAGPNCGWCTNTTFLQEGMPTSARCDDLEALKKKGCHPSDIENPRGSQTIKKNKNVTNRSKGMAEKLRPEDITQIQPQQLLLKLRSGEPQKFTLKFKRAEDYPIDLYYLMDLSYSMKDDLENVKSLGTDLMNEMRRITSDFRIGFGSFVEKTVMPYISTTPAKLRNPCTSEQNCTSPFSYKNVLSLTDRGEFFNELVGQQRISGNLDSPEGGFDAIMQVAVCGSLIGWRNVTRLLVFSTDAGFHFAGDGKLGGIVLPNDGQCHLENNVYTMSHYYDYPSIAHLVQKLSENNIQTIFAVTEEFQPVYKELKNLIPKSAVGTLSGNSSNVIQLIIDAYNSLSSEVILENSKLPDGVTINYKSYCKNGVNGTGENGRKCSNISIGDEVQFEISITANKCPNKESENQLKLNPLGFTEEVEVVLQFICKCNCQSHGIPASPKCHEGNGTFECGACRCNEGRVGRHCECSTDEVNSEDMDAYCRKENSSEICSNNGECVCGQCVCRKRENTNEIYSGKFCECDNFNCDRSNGLICGGNGVCRCRVCECYPNYTGSACDCSLDTVPCVATNGQICNGRGICECGACKCTDPKFQGPTCETCQTCLGVCAEHKECVQCRAFNKGEKKDTCAQECSHFNLTKVESREKLPQPVQVDPVTHCKEKDIDDCWFYFTYSVNSKGEAHVHVVETPDCPTGPDIIPIVAGVVAGIVLIGLALLLIWKLLMIIHDRREFAKFEKEKMNAKWDTGENPIYKSAVTTVVNPKYEGK
# What was measured:
# [1] = molecular target: triple-helical peptide II-27-B (II-27-derived sequence with GVOGEA within (GPP)5 hosts) (O in the letters is hydroxyproline); assay: real-time label-free cell adhesion
# [2] = molecular target: triple-helical peptide II-27-C (II-27-derived sequence with GVOGEA within (GPP)5 hosts) (O in the letters is hydroxyproline); assay: real-time label-free cell adhesion
binder,measurement,setting,value
B1,adhesion relative to that on II-27,[1],~40%
same,adhesion relative to that on II-27,[2],~40%
